Source: patent US5959145A, “Fatty acid analog enzyme substrates” (priority 1993, dated 1999)

B1: yeast NMT (Saccharomyces cerevisiae S288C) (protein)
chain: MSEEDKAKKLENLLKLLQLNNDDTSKFTQEQKKAMKDHKFWRTQPVKDFDEKVVEEGPIDKPKTPEDISDKPLPLLSSFEWCSIDVDNKKQLEDVFVLLNENYVEDRDAGFRFNYTKEFFNWALKSPGWKKDWHIGVRVKETQKLVAFISAIPVTLGVRGKQVPSVEINFLCVHKQLRSKRLTPVLIKEITRRVNKCDIWHALYTAGIVLPAPVSTCRYTHRPLNWKKLYEVDFTGLPDGHTEEDMIAENALPAKTKTAGLRKLKKEDIDQVFELFKRYQSRFELIQIFTKEEFEHNFIGEESLPLDKQVIFSYVVEQPDGKITDFFSFYSLPFTILNNTKYKDLGIGYLYYYATDADFQFKDRFDPKATKALKTRLCELIYDACILAKNANMDVFNALTSQDNTLFLDDLKFGPGDGFLNFYLFNYRAKPITGGLNPDNSNDIKRRSNVGVVML

Experiments:
[1] = C18 reverse phase HPLC elution of fatty acyl peptides (hydrophobicity); type: physicochemical; settings: C18 reverse phase HPLC, acyl derivative of GNAAS[125I]YRR; Table 2
Experimental: The fatty acid analog acyl-peptide eluted 7 minutes earlier than the corresponding myristoyl peptide. The free peptide elutes in the void volume (3-5minutes).
This difference was evident when the HPLC elution characteristics of fatty acyl peptides were examined. The elution time of a particular acyl-peptide depends strongly on the peptide sequence as well as on the acyl chain attached to that peptide. For example, the elution times of fatty acyl derivatives of GNAAAARR are (in minutes) decanoic acid, 9; dodecanoic acid, 18; myristic acid, 24; and palmitic acid, 30. Elution times for fatty acyl derivatives of GNAAS[^125 I]YRR are 23 and 28 minutes for C12 and C14 fatty acids, respectively (FIG. 2). […] Such a change could alter the biological activity of myristoyl proteins.
(§1) For these Examples, each analog synthesized is characterized by ^1 H and ^13 C NMR as well as mass spectroscopy. The analogs are then characterized kinetically as NMT substrates. Briefly, fatty acid analogs are converted to their CoA esters with Pseudomonas CoA ligase and incubated with the iodinated peptide GNAAS[^125 I]YRR and a source of NMT. […] The radiolabelled peptide is then used at concentrations which will lead to 50% enzyme saturation (i.e., at its Km) for the determination of fatty acid analog kinetic characteristics. Representative analogs with sulfur or oxygen in the backbone of the fatty acid chain serve as good substrates for NMT in vitro and will compete for incorporation of ^3 H labelled myri-state into yeast proteins in vivo. In addition, these analogs differ markedly in hydrophobicity from myri-state as measured both by C18 reverse phase HPLC elution profiles and by 2-octanol/water partition coefficients. The analog CH3 O(CH2)11 COOH, for example, partitions into water 20 fold better than myristate. It is believed that these analogs will be incorporated into mammalian acylproteins in vivo and that their incorporation into these proteins will drastically alter protein processing or targeting. It is further believed that the incorporation of fatty acid analogs of both myristate and palmitate into ester linked and phosphatidyl inositol glycan linked acylproteins will also dramatically alter their properties. Since many viral proteins and oncogenes are acylated, these compounds represent a new class of potential antiviral and antineoplastic agents.

[2] = growth, toxicity and total protein synthesis in yeast cells; type: cell-based; settings: s. cerevisiae bj405, vs control cells not exposed to exogenous fatty acid, read-out: reduction in total protein synthesis ([35S]methionine into TCA precipitable protein)
Experimental: (§2) Saccharomyces cerevisiae strain BJ405 [MATα, trpl, prbl, prcl, pep4-3; Hemmings et al., Proc. Natl. Acad. Sci. USA 78, 435-439 (1981)] (previously referred to as JR153) was grown to mid-log phase (OD660 nm =1.0-1.2) in YPD medium (1% yeast extract/2% Bactopeptone/2% Dextrose) at 30° C. in a rotary shaker water bath. Cells were pretreated with Cerulenin at 2 μg/ml for 15 minutes and then incubated for 20-45 minutes with unlabeled myristate, palmitate or fatty acid analog at 100 μM in the presence of either 5 μM [9,10-^3 H(N)]-myristate (22.4 Ci/mmol) or L-[^35 S]methionine (1106 Ci/mmol) at 30 μCi/ml of culture.
(§3) Cells were cooled on ice 5 minutes, pelleted at 10,000×g, then broken and extracted by the method of Towler et al., Proc. Natl. Acad. Sci. USA 83, 2812-2816 (1986). Total protein synthesis was assayed by trichloroacetic acid (TCA) precipitation. Proteins were separated by SDS-12% polyacrylamide gel electrophoresis, and [^3 H]fatty acid incorporation into cellular acyl-proteins was assayed by autoradiography followed by laser densitometry.

[3] = test system: Saccharomyces cerevisiae strain BJ405; assay: as above; type: cell-based
Experimental: as §2, §3

[4] = test system: yeast myristoylprotein of Mr 20 kDa; assay: competition for [3H]myristate incorporation into yeast acylprotein in vivo; type: cell-based; settings: Saccharomyces cerevisiae, 0.75 h; 100 μM unlabeled fatty acid or analog, 5 μM [3H]myristate, vs control cells; read-out: reduction in incorporation of [3H]myristate into yeast myristoylprotein of Mr 20 kDa
Experimental: as §2, §3

[5] = 2-octanol/water partition; type: physicochemical
Experimental: as §1, with “It is further believed that the incorporation of fatty acid analogs of both myristate and palmitate into ester linked and phosphatidyl inositol glycan linked acylproteins will also dramatically alter their properties. Since many viral proteins and oncogenes are acylated, these compounds represent a new class of potential antiviral and antineoplastic agents.” left out

yeast NMT = target: T1, yeast NMT (Saccharomyces cerevisiae, UniProt P14743); assay: kinetic characterisation of fatty acid analogs as yeast NMT substrates; type: biochemical
T1 construct: 11,000-fold purified preparation of yeast NMT; endogenous in cells; host or cells: yeast (enzyme purified from yeast, 11,000-fold)
T1 sequence (P14743 1-455): B1 chain
Description: (§4) Similar results were obtained using an 11,000-fold purified preparation of yeast NMT [Towler et al., Proc. Natl. Acad. Sci. USA 84, 2708-2712 (1987)].
(§5) Other illustrative examples of the oxy- and thio-substituted fatty acid analog substrate compounds of the invention were synthesized in Examples 6 to 14 and tested in Example 15 as substrates for the yeast NMT.
as §1

[6] = substrate: CCSCCCCCCCCCCC(=O)O; assay: as above; type: biochemical; settings: other: peptide GNAAS[125I]YRR varied, fatty acid analog at 15 μM
Description: as §4, §5, §1

[7] = substrate: CCCCOCCCCCCCCCCC(=O)O; assay: as above; type: biochemical; settings: other: peptide GNAAS[125I]YRR varied, fatty acid analog at 15 μM
Description: as §4, §5, §1

[8] = substrate: CCCCCCCCSCCCCC(=O)O; assay: as above; type: biochemical; settings: other: peptide GNAAS[125I]YRR varied, fatty acid analog at 15 μM
Description: as §4, §5, §1

[9] = substrate: CCCCCCCCCCCCCC(=O)O; assay: as above; type: biochemical; settings: other: peptide GNAAS[125I]YRR varied, fatty acid analog at 15 μM
Description: as §4, §5, §1

[10] = substrate: CCCSCCCCCCCCCC(=O)O; assay: as above; type: biochemical; settings: other: peptide GNAAS[125I]YRR varied, fatty acid analog at 15 μM
Description: as §4, §5, §1

[11] = substrate: CCCCCCCCOCCCCC(=O)O; assay: as above; type: biochemical; settings: other: peptide GNAAS[125I]YRR varied, fatty acid analog at 15 μM
Description: as §4, §5, §1

[12] = substrate: CCCOCCCCCCCCCC(=O)O; assay: as above; type: biochemical; settings: other: peptide GNAAS[125I]YRR varied, fatty acid analog at 15 μM
Description: as §4, §5, §1

[13] = substrate: CCOCCCCCCCCCCC(=O)O; assay: as above; type: biochemical; settings: other: peptide GNAAS[125I]YRR varied, fatty acid analog at 15 μM
Description: as §4, §5, §1

[14] = substrate: COCCCCCCCCCCC(=O)O; assay: as above; type: biochemical; settings: other: peptide GNAAS[125I]YRR varied, fatty acid analog at 15 μM
Description: as §4, §5, §1

[15] = substrate: C#CCOCCCCCCCCCC(=O)O; assay: as above; type: biochemical; settings: other: peptide GNAAS[125I]YRR varied, fatty acid analog at 15 μM
Description: as §4, §5, §1

Molecule | Elution Time [1] | inhibition at 100 µM [2] | difference in growth rates versus cells treated with 100 μM myristate [3] | inhibition at 100 µM [4] | partition into water relative to myristate [5] | Peptide Vm (yeast NMT; peptide GNAAS[125I]YRR varied, fatty acid analog at 15 μM, myristate control = 100%) | Acyl CoA Vm (yeast NMT; radiolabelled peptide at its Km, analog varied, myristate control = 100%) | Km (yeast NMT; radiolabelled peptide at its Km, analog varied, read-out: Acyl CoA Km) | Km [6] | Km [7] | Km [8] | Km [9] | Km [10] | Km [11] | Km [12] | Km [13] | Km [14] | Km [15]
COCCCCCCCCCCCC(=O)O [E, 12-(Methoxy)dodecanoic acid] | 12 to 13 min | 10 to 15% | No difference | 35 to 60% | 20 fold | 177% | ~ 110% | ~2 µM |  |  |  |  |  |  |  |  |  | 
B1 |  |  |  |  |  |  |  |  | 19 µM | 42 µM | 11.5 µM | 10 µM | 47 µM | 31 µM | 34 µM | 14.8 µM | 47.3 µM | 28 µM
